Where “and” joins values, the source holds several entries; their conditions need not be identical. Identical values can stand only once.

Experiment [1] addresses BtcA (Bordetella pertussis). The experiment is described as follows: cross-linking; BtcA about 4 mg/ml in PBS with serially diluted EGS (from 3 mM), 30 min at RT, SDS-PAGE.
Experiment [2] addresses BtcA (Bordetella pertussis). The experiment is described as follows: SEC-RALS; BtcA (525 ug) on Superdex 200 10/300 with triple detector array; 20 mM Tris pH 8.0, 350 mM NaCl, 20 mM EDTA.
Experiment [3] has as its target BteA287 (BteA N-terminal domain, residues 1-287) (Bordetella pertussis). The experiment is described as follows: MALDI-TOF MS; BtcA-BteA287 complex, linear mode, m/z 20,000 to 150,000; the methods describe EGS cross-linking of the complex before MALDI-TOF analysis.
The target is the same in experiment [4]. The experiment can be described thus: MST; labeled BteA287 or BteA32-287 (NT-495 BLUE-NHS) mixed with BtcA serially diluted from 200 uM or 100 uM; 20 mM Tris 8, 350 mM NaCl, 20 mM EDTA, 0.05% Tween-20; 20°C; logistic dose-response fit, three measurements averaged.
The target of experiment [5] is BteA32-287 (Bordetella pertussis). The description is as above.

Turning to BtcA (natural protein), the stoichiometry N in experiment [1] and in experiment [2] was 2 throughout. The stoichiometry N (BtcA per BteA287) in experiment [3] is 1 and 2. For the same substance, the Kd worked out at 6.6 µM in experiment [4] and 14 µM in experiment [5].
For the substance “BteA287 (BteA N-terminal domain, residues 1-287) (domain or fragment)”, the stoichiometry N in experiment [3] was 2.
